In patent US20250282887A1 (Amgen, published 2025):

T1: Human MAGEB2 (Melanoma-associated antigen B2) (human, UniProt O15479 1-319)
T1 construct: Intracellular antigen detected by IHC in FFPE material: CHO cells transfected with human MAGEB2 (mCherry vector with Myc/DDK tags, or ORF without tags)
T1 sequence: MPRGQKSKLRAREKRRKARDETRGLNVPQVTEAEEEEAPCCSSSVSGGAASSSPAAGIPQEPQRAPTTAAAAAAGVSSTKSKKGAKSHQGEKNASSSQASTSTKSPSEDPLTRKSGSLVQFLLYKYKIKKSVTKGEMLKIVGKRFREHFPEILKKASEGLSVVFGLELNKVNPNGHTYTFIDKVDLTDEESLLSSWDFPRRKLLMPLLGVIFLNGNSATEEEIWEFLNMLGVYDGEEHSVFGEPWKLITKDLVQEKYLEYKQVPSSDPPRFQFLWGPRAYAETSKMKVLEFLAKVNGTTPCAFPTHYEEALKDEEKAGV

T2: human MAGEB16 (human, UniProt A2A368 1-324)
T2 construct: whole, on cells; FFPE cell pellets
T2 sequence (looked up): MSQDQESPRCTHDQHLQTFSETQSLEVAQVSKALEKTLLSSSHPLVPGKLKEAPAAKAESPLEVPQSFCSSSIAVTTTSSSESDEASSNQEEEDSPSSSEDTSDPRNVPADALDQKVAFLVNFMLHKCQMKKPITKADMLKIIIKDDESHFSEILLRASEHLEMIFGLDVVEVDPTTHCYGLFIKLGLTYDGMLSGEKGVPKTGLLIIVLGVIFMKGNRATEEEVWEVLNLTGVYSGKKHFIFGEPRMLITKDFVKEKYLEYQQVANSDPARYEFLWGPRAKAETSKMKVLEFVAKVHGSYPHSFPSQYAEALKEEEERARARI

B1: 1C3 (antibody, V domains shown)
VH: QSLEESGGGLVQPEGSLTLTCTAFGVTLTNYYICWVRQAPGKGLEWVGCIDNANGRTYYASWAKGRFTISKTSSTTGTLQMTSLTAADTATYFCARSLATPLWGPGTLVTVSS
VL: DIVMTQTPSSVEAAVGGTVTIKCQASQNISSYLAWYQQKPGQPPKLLIYRASTLASGVPSRFKGSGSGTQFTLTISDLECADAATYYCQSYDDSRSSNFFYAFGGGTEVVVKG
notes: also called MAGE-B2 (IC3); anti-MAGEB2 antibody 1C3
B2: 4G17 (antibody, IgG1, V domains shown)
VH: QSLEESGGGLVQPEGSLTLTCTASGVTLSNYYICWVRQAPGKGLEWIGCIDNVNGRTYYASWAKGRFTISKTSSTTGTLQMTSLTAADTATYFCARSLATPLWGPGTLVTVSS
VL: DIVMTQTPASVEAAVGGTVTIKCQASQNIDSYLAWYQQKPGQPPKLLIYRASTLASGVPSRFKGSGSGTEFTLTISDLECADAATYYCQSYDDSRSSSFFYGFGGGTEVVVK
notes: Rabbit monoclonal IgG1; Tested as supernatant and as small batch purified antibody; also called MAGE-B2 (4G17); anti-MAGEB2 antibody 4G17
B3: 1J15 (antibody, IgG1, V domains shown)
VH: QSLEESGGGLVQPEGSLTLTCTAFGFTLNNYYICWVRQAPGKGLEWIACIDNANGRTYYASWAKGRFTISKTSSTTVTLQMTSLTAADTATYFCARSLSTPLWGPGTLVTVSS
VL: DIVMTQTPASVEAAVGGTVTIKCQASQSISSYLSWYQQKPGQPPKLLIYRASTLASGVPSRFRGSGSGTQFTLTISDLECADAATYYCQSYDDSSDNNFFYGFGGGTEVVVR
notes: Rabbit monoclonal IgG1; Tested as supernatant and as small batch purified antibody; also called MAGE-B2 (IJ15); anti-MAGEB2 antibody 1J15
B4: 1I14 (antibody, V domains shown)
VH: QSVEESGGRLVTPGTPLTLTCTISGFSLSSYAMSWVRQAPGKGLEWIGSIGGGGSAVYASWAKGRFTISKTSTTVDLRITSPTTEDTAMYFCGRGFYSIDLWGPGTLVTVSS
VL: DVVMTQTPASVEATVGGTVTIKCQSSQSVYDNNALAWYQQNAGQRPRLLIYGASTLASGVPSRFSASGSGTEFTLTISDLECADAATYYCQCTYYVSSYQNDFGGGTEVVVKG
notes: also called MAGE-B2 (1i14)

Key:
[1] = target: T1, Human MAGEB2 (Melanoma-associated …); assay: IHC on FFPE KMM-1 cells (endogenous MAGEB2)
Method: (§1) FFPE samples were sectioned at 4 μm and mounted on positive charged glass slides. After mounting, paraffin sections were air-dried at room temperature. FFPE TMA samples were received as freshly sectioned and mounted on glass slides. The fully automated IHC assay was performed on a Discovery Ultra Stainer (Ventana Medical Systems, Tucson, AZ) using Ventana Anti-Rabbit HQ (cat #760-4815), Ventana Anti-HQ HRP (cat #760-4820), and Ventana Antibody Diluent with Casein (cat #760-219) (Ventana Medical Systems, Tucson, AZ). The slides were baked on the Discovery Ultra Stainer at 60° C. for 8 minutes, de-paraffinized with Ventana Discovery wash (cat #950-510) for 3 cycles (8 minutes each) at 69° C., and underwent cell conditioning (target retrieval) at 95° C. for 16 minutes (for cell arrays) or 32 minutes (tissues or TMAs) in CC1 buffer (cat #950-500). Following this, slides were incubated with Background Sniper (cat #BS966M, Biocare Medical, Pacheco, CA) in a Ventana Option Prep kit (cat #771-751) for 28 minutes, incubated with CM inhibitor (a part of the Ventana DAB kit cat #760-159) for 12 minutes, and incubated for 1 h at RT with MAGE-B2 antibody diluted with Ventana diluent with Casein in a Ventana Prep kit (cat #770-001) (working concentration at 0.1 μg/ml for cell pellet, or 1-5 ug/ml for tissues) or with a matched concentration of isotype control Rabbit IgG1 antibody. Following this, slides were incubated with the Ventana Anti-Rabbit HQ (cat #760-4815) for 28 minutes at RT, Ventana Anti-HQ HRP (cat #760-4820) for 28 minutes at RT, and signals detected with Ventana DAB chromogen kit (cat #760-159) for 5 minutes at RT. Slides were counterstained with Ventana Hematoxylin II (cat #5266726001) for 8 minutes and Ventana Bluing reagent (cat #526676900) for 4 minutes. Slides were coverslipped and digitized using an Aperio AT2 scanner (Leica Biosystems Inc, Buffalo Grove, IL).

[2] = target: T3, human MAGEA6 (human, UniProt P43360 1-314); assay: IHC, FFPE CHO cells transfected with human MAGEA6
T3 construct: whole, on cells; FFPE cell pellets
T3 sequence (P43360 whole entry): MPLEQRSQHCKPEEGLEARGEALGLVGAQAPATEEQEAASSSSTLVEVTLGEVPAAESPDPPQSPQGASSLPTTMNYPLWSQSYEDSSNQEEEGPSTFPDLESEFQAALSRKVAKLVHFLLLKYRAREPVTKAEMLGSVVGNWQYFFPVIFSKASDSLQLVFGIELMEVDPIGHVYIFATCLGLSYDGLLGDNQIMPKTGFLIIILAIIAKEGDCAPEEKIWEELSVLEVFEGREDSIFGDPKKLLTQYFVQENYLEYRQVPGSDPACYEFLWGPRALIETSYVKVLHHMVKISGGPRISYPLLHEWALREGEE
Method: as §1

[3] = target: T2, human MAGEB16; assay: IHC, FFPE CHO cells transfected with human MAGEB16
Excerpt: Negative control cells included parental Chinese hamster ovary (CHO) cells, CHO cells stably transfected with mCherry Vector Control (minus Myc/DDK tags), CHO cells stably transfected with mCherry-human DCAF4L2 (plus Myc/DDK tags). The cross-reactivity control cells included CHO cells transfected with mCherry Vector Control (plus Myc/DDK tags) with one of the human MAGE-B or MAGE-A family members (MAGEA1, MAGEA2, MAGEA3, MAGEA4, MAGEA5, MAGEA6, MAGEA8, MAGEA9, MAGEA11, MAGEA12, MAGEB1, MAGEB3, MAGEB4, MAGEB5, MAGEB6, MAGEB10, MAGEB16, MAGEB17, MAGEB18). Positive control cell lines included CHO cells transfected with mCherry Vector (plus Myc/DDK tags) with human MAGE-B2 or CHO cells transfected with mCherry Vector (open reading frame (ORF); minus Myc/DDK tags) with human MAGEB2, and thirteen human cancer cell lines with known endogenous RNA expression level of MAGEB2 (U266B1, T98G, KMM-1, U20S, CFPAC-1, SCaBER, UACC-257, CFPAC-1, VMRC-LCD, NCI-H1703, UM-UC-3, NCI-H1395, NCIH82).
as §1, with “antibody.” for “antibody. Following this, slides were incubated with the Ventana Anti-Rabbit HQ (cat #760-4815) for 28 minutes at RT, Ventana Anti-HQ HRP (cat #760-4820) for 28 minutes at RT, and signals detected with Ventana DAB chromogen kit (cat #760-159) for 5 minutes at RT. Slides were counterstained with Ventana Hematoxylin II (cat #5266726001) for 8 minutes and Ventana Bluing reagent (cat #526676900) for 4 minutes. Slides were coverslipped and digitized using an Aperio AT2 scanner (Leica Biosystems Inc, Buffalo Grove, IL).”

[4] = target: T1, Human MAGEB2 (Melanoma-associated …); assay: IHC on FFPE U20S cells (endogenous MAGEB2)
Method: as §1

| Binder | IHC % Frequency [1] [%] | IHC Intensity [1] | binding result [2] | binding result [3] | IHC % Frequency [4] [%] | IHC Intensity [4] |
| --- | --- | --- | --- | --- | --- | --- |
| B1 | 70 | 1 | no binding (tested: 0.1 µg/ml) | no binding (tested: 0.1 µg/ml) | 60 | 2 |
| B2 | 70 | 2 | no binding (tested: 0.1 µg/ml) | no binding (tested: 0.1 µg/ml) | 60 | 2 |
| B3 | 70 | – | no binding (tested: 0.1 µg/ml) | no binding (tested: 0.1 µg/ml) | 50 | 1 |
| B4 | 70 | 1 | no binding (tested: 0.1 µg/ml) | no binding (tested: 0.1 µg/ml) | 70 | 2 |
